# Where two headings read alike, the source gives them in different places.
# What was measured:
# [1] = target: T1, human CSF1R on CSF1R (SEQ ID NO: 2)-transfected CHO cells (human, UniProt P07333 20-972); test: cell-based or functional assay
# cynoCSF1R ECD-Fc [2] = target: T2, cynoCSF1R ECD-Fc (cynomolgus); test: competition ELISA, blocking of human CSF1 binding to cynoCSF1R ECD-Fc
# T2 construct: also called cynomolgus CSF1R ECD
# Experimental: (§1) The humanized antibodies, along with the parental chimeric antibodies (cAbs), were tested for their ability to block human CSF1 binding to human and cynomolgus CSF1R ECD, as follows.
# (§2) Recombinant Human CSF1 (M-CSF; R&D Systems) was biotinylated using an NH₂-Biotin Labeling Kit (Dojindo Molecular Technologies). One hundred μl of 1 μg/ml biotinylated CSF1 in PBST/0.1% BSA was added to the wells of Reacti-Bind Streptavidin coated plates (Pierce) pre-blocked with SuperBlock blocking buffer (Pierce) according to the manufacturer's instructions. Fifty μl of 0.5× serial dilutions of the humanized antibody or parental chimeric antibody, beginning with 2000 ng/ml, was incubated with 50 ng/ml hCSF1R ECD.506-Fc (SEQ ID NO: 6; FivePrime Therapeutics) or 50 ng/ml cynoCSF1R ECD-Fc (FivePrime Therapeutics, SEQ ID NO: 8, but without the 19 amino acid leader sequence) in 100 μl PBST/0.1% BSA for 90 min at RT, after which the admix was transferred to one or more wells of a ligand-coated plate. After 90 min at RT, wells were washed with PBST, and a 1:5000 dilution of an Fc-fragment-specific peroxidase-conjugated goat anti-human IgG (Jackson Immuno Research) in PBST/0.1% BSA was added to each well. After incubation at RT for 60 min, wells were washed with PBST/0.1% BSA, and o-phenylenediamine dihydrochloride peroxidase substrate (Sigma) was added to each well. After incubation at RT for 30 min, A450 values of each well were read directly on a SpectraMaxPlus spectrophotometer with SoftMaxPro software (Molecular Devices).
# hCSF1R ECD.506 = target: T3, hCSF1R ECD.506 (human, UniProt P07333 20-506); test: SPR Biacore T100, antibody captured on anti-human IgG, hCSF1R ECD.506 as analyte, 1:1 model
# T3 construct: also called human CSF1R ECD
# Experimental: The kₐ, kd, and KD for binding to human CSF1R ECD was determined for each of the humanized antibodies as follows.
# Binding kinetics of anti-CSF1R humanized antibodies to CSF1R ECD was determined using Biacore T100 Surface Plasmon Resonance (SPR) (GE Healthcare Life Sciences, Piscataway, N.Y.). Each of the humanized anti-CSF1R antibodies was captured on a CM5 sensor chip immobilized with anti-Human IgG antibody using the Human antibody capture kit (GE Healthcare Life Sciences, Piscataway, N.Y.) at 150 RU so that the Rmax value for hCSF1R ECD.506 (SEQ ID NO: 5) binding was 100 RU. Rmax values of less than 150 RU are recommended for accurately determining kinetic values. […] The association constant, dissociation constant, affinity, and binding capacity of each of the Fabs for human CSF1R ECD was calculated using the Biacore T100 Evaluation software package using the 1:1 binding model.
# [3] = target: T1, human CSF1R on CSF1R (SEQ ID NO: …); test: cell-based or functional assay; remark: listed apart in the source
# [4] = target: T1, human CSF1R on CSF1R (SEQ ID NO: …); test: cell-based or functional assay; remark: listed apart in the source
# hCSF1R ECD.506-Fc = target: T4, hCSF1R ECD.506-Fc (human); test: ELISA, plate coated with human CSF1R ECD-Fc
# T4 construct: also called human CSF1R ECD-Fc fusion protein; human CSF1R ECD
# Experimental: (§3) Ninety-six well clear-bottom ELISA plates were coated overnight with 1 μg/ml recombinant hCSF1R ECD.506-Fc (SEQ ID NO: 6; FivePrime Therapeutics) or Human M-CSF R Fc Chimera (R&D Systems) in PBS. The next morning, wells were washed four times with 0.05% Tween20 in PBS (PBST) and blocked with Blocker-Blotto (Pierce). Fifty μl of 0.5× serial dilutions of the humanized antibody or parental chimeric antibody, beginning with 2000 ng/ml, diluted 1:1 in Blocker-Blotto were added to the CSF1R-coated wells. After incubation at room temperature (RT) for 90 min, wells were washed four times with PBST, and a 1:5000 dilution of a peroxidase-conjugated Goat anti-Human kappa Light chain antibody (Sigma) in Blocker-Blotto was added to each well. After incubation at RT for 60 min, wells were washed four times with PBST, and 50 μl o-phenylenediamine dihydrochloride peroxidase substrate (Sigma) was added to each well. After incubation at RT for 30 min, A450 values of each well were read directly on a SpectraMaxPlus spectrophotometer with SoftMaxPro software (Molecular Devices).
# cynoCSF1R ECD-Fc [5] = target: T2, cynoCSF1R ECD-Fc; test: competition ELISA, blocking of human IL34 binding to cynoCSF1R ECD-Fc
# mCSF1R ECD-Fc = target: T5, mCSF1R ECD-Fc (mouse); test: ELISA, plate coated with mCSF1R ECD-Fc, detection anti-human kappa-HRP, A450
# T5 construct: also called mouse CSF1R ECD
# Experimental: as §3
# The binding curve for each humanized antibody binding to mouse CSF1R ECD was determined as described above for human CSF1R, except the wells of the clear-bottom ELISA plates were coated overnight with 2 μg/ml recombinant mCSF1R ECD-Fc (FivePrime Therapeutics, SEQ ID NO: 93).
# cynoCSF1R ECD-Fc [6] = target: T2, cynoCSF1R ECD-Fc; test: ELISA, plate coated with cynoCSF1R ECD-Fc
# Experimental: as §3
# The binding curve for each humanized antibody binding to cynomolgus CSF1R ECD was determined as described above for human CSF1R, except the wells of the clear-bottom ELISA plates were coated overnight with 2 μg/ml recombinant cynoCSF1R ECD-Fc (FivePrime Therapeutics, SEQ ID NO: 8, but without the 19 amino acid leader sequence).
# [7] = target: T1, human CSF1R on CSF1R (SEQ ID NO: …); test: cell-based or functional assay; remark: listed apart in the source
# [8] = target: T1, human CSF1R on CSF1R (SEQ ID NO: …); test: cell-based or functional assay; remark: listed apart in the source
# cynoCSF1R ECD-Fc [9] = target: T2, cynoCSF1R ECD-Fc; test: competition ELISA, blocking of human IL34 binding to cynoCSF1R ECD-Fc (curve-fit value far beyond the range tested); blocking of human IL34 binding to cynoCSF1R ECD
# Experimental: Recombinant Human CSF1 (M-CSF; R&D Systems) was biotinylated using an NH₂-Biotin Labeling Kit (Dojindo Molecular Technologies). One hundred μl of 1 μg/ml biotinylated CSF1 in PBST/0.1% BSA was added to the wells of Reacti-Bind Streptavidin coated plates (Pierce) pre-blocked with SuperBlock blocking buffer (Pierce) according to the manufacturer's instructions. […] After incubation at RT for 30 min, A450 values of each well were read directly on a SpectraMaxPlus spectrophotometer with SoftMaxPro software (Molecular Devices).
# The humanized antibodies were tested for their ability to block human IL34 binding to human CSF1R ECD. The blocking activity of each humanized antibody was determined as described above for blocking of CSF1, except recombinant human IL34 (FivePrime Therapeutics; SEQ ID NO: 68) was biotinylated using an NH2-Biotin Labeling Kit (Dojindo Molecular Technologies), and then 100 μl of 1 μg/ml biotinylated recombinant IL34 in PBST/0.1% BSA was added to the wells of Reacti-Bind Streptavidin coated plates (Pierce) pre-blocked with SuperBlock blocking buffer (Pierce) according to the manufacturer's instructions.
# cynoCSF1R ECD-Fc [10] = target: T2, cynoCSF1R ECD-Fc; test: competition ELISA, blocking of human CSF1 binding to cynoCSF1R ECD-Fc; blocking of human CSF1 binding to cynoCSF1R ECD
# Experimental: as §1
# as §2, with “After incubation at RT for 60 min, wells were washed with PBST/0.1% BSA, and o-phenylenediamine dihydrochloride peroxidase substrate (Sigma) was added to each well.” left out
# [11] = target: T1, human CSF1R on CSF1R (SEQ ID NO: …); test: cell-based or functional assay; remark: listed apart in the source
# T4 sequence (chain, as listed by the source limits assumed): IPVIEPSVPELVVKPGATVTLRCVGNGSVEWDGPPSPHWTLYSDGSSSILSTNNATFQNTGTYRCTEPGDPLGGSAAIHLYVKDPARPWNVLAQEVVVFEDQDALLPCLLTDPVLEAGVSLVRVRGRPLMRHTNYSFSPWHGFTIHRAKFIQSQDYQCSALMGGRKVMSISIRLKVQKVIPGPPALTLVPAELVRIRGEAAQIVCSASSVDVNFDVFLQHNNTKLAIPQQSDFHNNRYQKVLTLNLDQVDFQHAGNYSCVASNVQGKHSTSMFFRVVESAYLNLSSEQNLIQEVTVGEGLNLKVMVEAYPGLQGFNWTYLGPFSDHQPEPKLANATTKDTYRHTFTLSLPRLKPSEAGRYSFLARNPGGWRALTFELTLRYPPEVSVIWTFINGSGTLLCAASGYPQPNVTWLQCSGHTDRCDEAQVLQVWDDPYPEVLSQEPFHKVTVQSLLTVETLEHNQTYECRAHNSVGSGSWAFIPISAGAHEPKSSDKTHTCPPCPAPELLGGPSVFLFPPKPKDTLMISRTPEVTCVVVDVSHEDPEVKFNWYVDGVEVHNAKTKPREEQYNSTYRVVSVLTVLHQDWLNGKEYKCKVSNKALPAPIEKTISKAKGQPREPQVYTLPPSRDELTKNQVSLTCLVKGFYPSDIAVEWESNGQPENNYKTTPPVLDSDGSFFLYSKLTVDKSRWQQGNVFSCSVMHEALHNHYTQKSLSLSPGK
# T2 sequence (chain, as listed by the source): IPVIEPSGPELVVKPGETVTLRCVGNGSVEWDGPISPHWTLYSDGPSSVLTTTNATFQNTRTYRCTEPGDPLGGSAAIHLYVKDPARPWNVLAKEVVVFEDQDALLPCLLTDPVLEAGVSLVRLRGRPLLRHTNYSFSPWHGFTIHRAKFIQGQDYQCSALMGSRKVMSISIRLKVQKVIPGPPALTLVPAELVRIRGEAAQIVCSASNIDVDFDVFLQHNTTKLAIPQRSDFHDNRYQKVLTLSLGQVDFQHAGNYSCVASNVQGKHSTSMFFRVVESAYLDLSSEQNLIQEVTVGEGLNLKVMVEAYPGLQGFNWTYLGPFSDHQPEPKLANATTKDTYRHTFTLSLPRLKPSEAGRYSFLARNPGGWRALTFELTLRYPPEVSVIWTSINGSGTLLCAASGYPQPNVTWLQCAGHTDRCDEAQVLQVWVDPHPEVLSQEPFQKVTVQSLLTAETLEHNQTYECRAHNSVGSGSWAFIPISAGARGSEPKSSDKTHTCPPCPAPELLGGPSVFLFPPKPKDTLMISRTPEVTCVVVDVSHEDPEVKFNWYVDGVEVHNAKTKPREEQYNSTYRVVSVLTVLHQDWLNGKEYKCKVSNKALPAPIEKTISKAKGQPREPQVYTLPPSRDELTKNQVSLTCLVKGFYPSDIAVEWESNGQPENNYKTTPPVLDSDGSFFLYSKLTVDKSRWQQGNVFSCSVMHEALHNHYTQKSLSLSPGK
# T5 sequence (chain, as listed by the source limits assumed): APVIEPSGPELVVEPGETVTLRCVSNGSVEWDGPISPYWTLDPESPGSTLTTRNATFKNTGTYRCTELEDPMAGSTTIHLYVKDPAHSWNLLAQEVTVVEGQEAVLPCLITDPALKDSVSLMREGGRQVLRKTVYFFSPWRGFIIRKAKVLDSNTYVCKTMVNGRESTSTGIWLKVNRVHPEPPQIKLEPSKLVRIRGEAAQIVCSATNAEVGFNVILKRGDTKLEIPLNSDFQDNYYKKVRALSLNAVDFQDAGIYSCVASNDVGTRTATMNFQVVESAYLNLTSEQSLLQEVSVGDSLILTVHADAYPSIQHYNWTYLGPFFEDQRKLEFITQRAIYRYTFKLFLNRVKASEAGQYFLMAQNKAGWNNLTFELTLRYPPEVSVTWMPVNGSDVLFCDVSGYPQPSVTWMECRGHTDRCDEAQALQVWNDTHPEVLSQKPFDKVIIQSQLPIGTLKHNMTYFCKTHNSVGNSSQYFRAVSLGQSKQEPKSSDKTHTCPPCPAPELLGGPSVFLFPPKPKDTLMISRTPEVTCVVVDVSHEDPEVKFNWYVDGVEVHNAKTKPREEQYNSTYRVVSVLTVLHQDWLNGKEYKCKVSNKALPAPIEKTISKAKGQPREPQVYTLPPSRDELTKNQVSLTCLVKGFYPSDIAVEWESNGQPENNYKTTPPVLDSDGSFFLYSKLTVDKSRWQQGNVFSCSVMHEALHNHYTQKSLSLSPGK
# T3 sequence (P07333 20-506): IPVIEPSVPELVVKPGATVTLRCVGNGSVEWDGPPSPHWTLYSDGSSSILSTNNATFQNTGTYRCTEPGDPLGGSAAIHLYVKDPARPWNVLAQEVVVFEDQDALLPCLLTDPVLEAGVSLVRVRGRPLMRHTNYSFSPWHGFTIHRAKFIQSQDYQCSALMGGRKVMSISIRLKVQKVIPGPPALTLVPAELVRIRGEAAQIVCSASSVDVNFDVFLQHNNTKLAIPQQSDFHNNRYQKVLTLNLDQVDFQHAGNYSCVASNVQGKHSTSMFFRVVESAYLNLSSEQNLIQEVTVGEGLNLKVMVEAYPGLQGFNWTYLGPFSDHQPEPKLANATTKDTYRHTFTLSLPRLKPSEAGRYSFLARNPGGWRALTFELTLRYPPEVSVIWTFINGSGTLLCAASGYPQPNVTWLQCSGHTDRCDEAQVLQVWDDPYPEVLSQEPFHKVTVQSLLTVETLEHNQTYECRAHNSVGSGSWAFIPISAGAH
# T1 sequence (P07333 20-972): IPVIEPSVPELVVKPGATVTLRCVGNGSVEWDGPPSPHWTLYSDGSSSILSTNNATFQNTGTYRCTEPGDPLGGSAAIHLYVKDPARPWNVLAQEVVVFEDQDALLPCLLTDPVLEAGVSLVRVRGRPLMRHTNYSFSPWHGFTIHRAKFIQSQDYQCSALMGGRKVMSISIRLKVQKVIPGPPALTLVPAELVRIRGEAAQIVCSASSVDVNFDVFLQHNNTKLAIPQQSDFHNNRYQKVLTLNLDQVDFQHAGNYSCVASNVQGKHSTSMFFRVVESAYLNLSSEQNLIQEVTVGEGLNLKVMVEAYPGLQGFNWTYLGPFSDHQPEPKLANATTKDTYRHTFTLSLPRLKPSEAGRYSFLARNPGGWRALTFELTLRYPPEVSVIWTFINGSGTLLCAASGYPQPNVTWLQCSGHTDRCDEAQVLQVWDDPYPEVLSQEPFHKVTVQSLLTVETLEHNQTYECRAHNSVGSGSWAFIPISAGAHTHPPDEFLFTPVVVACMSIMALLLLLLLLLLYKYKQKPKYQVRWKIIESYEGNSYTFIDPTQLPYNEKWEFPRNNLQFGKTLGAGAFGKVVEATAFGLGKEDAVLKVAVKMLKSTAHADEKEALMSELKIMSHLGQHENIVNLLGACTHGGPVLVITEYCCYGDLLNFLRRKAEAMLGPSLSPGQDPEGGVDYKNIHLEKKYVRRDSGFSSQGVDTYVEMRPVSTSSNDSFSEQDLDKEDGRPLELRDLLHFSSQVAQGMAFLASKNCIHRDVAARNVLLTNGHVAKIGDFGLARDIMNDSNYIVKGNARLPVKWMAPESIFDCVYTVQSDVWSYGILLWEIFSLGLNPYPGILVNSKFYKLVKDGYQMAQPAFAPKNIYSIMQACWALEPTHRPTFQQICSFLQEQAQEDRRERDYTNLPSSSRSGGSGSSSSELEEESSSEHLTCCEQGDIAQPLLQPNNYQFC
binder,measurement,setting,value
"h0311-L0H1 (antibody, human IgG4 S228P, kappa, V domains shown, also called Ab13; huAb 0311-L0H1) VH: QVQLVQSGAEVKKPGSSVKVSCKASGYIFTDYNMHWVRQAPGQGLEWMGEINPNNGVVVYNQKFKGRVTITVDKSTSTAYMELSSLRSEDTAVYYCTRALYHSNFGWYFDSWGQGTLVTVSS VL: EIVLTQSPATLSLSPGERATLSCKASQSVDYDGDSHMNWYQQKPGQAPRLLIYTASNLESGIPARFSGSGSGTDFTLTISSLEPEDFAVYYCQQGNEDPWTFGQGTKVEIKR",CSF1 blocking IC50 (ligand-induced CSF1R phosphorylation in CHO cells),[1],127 ng/mL
same,IL34 blocking IC50 (ligand-induced CSF1R phosphorylation in CHO cells),[1],338 ng/mL
same,IC50,cynoCSF1R ECD-Fc [2],0.0325 µg/mL
same,Kd,hCSF1R ECD.506,0.44 nM
same,koff,hCSF1R ECD.506,0.00054 s⁻¹
same,kon,hCSF1R ECD.506,1.22e+06 M⁻¹ s⁻¹
same,"IC50, inhibition of CSF1-induced CSF1R phosphorylation (head prints 'Human CSF1/Human CSF1R ECD IC50')",[3],291 ng/mL
same,"IC50, inhibition of IL34-induced CSF1R phosphorylation (head prints 'Human IL34/Human CSF1R ECD IC50')",[3],343 ng/mL
same,"IC50 (read off the curve), IL34-induced CSF1R phosphorylation",[4],~400 ng/mL
same,EC50,hCSF1R ECD.506-Fc,0.0131 µg/mL
same,IC50,cynoCSF1R ECD-Fc [5],0.0504 µg/mL
same,binding result,mCSF1R ECD-Fc,no binding (tested: 2000 ng/ml)
same,EC50,cynoCSF1R ECD-Fc [6],0.0216 µg/mL
"h0302-L0H1 (antibody, human IgG4 S228P, kappa, V domains shown, also called Ab7; huAb 0302-L0H1) VH: QVQLVQSGAEVKKPGSSVKVSCKASGYTFSDFNIHWVRQAPGQGLEWMGYINPYTDVTVYNEKFKGRVTITSDKSTSTAYMELSSLRSEDTAVYYCASYFDGTFDYALDYWGQGTLVTVSS VL: EIVLTQSPATLSLSPGERATLSCRASESVDNYGLSFMNWYQQKPGQAPRLLIYTASNLESGIPARFSGSGSGTDFTLTISSLEPEDFAVYYCQQSKELPWTFGQGTKVEIKR","IC50 (read off the curve), CSF1-induced CSF1R phosphorylation",[7],~1000 ng/mL
same,IC50,cynoCSF1R ECD-Fc [2],0.0155 µg/mL
same,Kd,hCSF1R ECD.506,1.04 nM
same,koff,hCSF1R ECD.506,0.00369 s⁻¹
same,kon,hCSF1R ECD.506,3.54e+06 M⁻¹ s⁻¹
same,"IC50, inhibition of CSF1-induced CSF1R phosphorylation (head prints 'Human CSF1/Human CSF1R ECD IC50')",[3],928 ng/mL
same,"IC50, inhibition of IL34-induced CSF1R phosphorylation (head prints 'Human IL34/Human CSF1R ECD IC50')",[3],615 ng/mL
same,"IC50 (read off the curve), IL34-induced CSF1R phosphorylation",[8],~600 ng/mL
same,EC50,hCSF1R ECD.506-Fc,0.0146 µg/mL
same,IC50,cynoCSF1R ECD-Fc [9],> 2 µg/mL
same,binding result,mCSF1R ECD-Fc,no binding (tested: 2000 ng/ml)
same,EC50,cynoCSF1R ECD-Fc [6],0.467 µg/mL
"h0311-L1H2 (antibody, human IgG4 S228P, kappa, V domains shown, also called Ab16; huAb 0311-L1H2) VH: QVQLVQSGAEVKKPGSSVKVSCKASGYIFTDYNMHWVRQAPGQGLEWMGEINPNNGVVVYNQKFKGTTTLTVDKSTSTAYMELSSLRSEDTAVYYCTRALYHSNFGWYFDSWGQGTLVTVSS VL: DIVLTQSPATLSLSPGERATLSCKASQSVDYDGDSHMNWYQQKPGQAPRLLIYTASNLESGIPARFSGSGSGADFTLTISSLEPEDFAVYYCQQGNEDPWTFGQGTKVEIKR",IC50,cynoCSF1R ECD-Fc [2],0.0308 µg/mL
same,Kd,hCSF1R ECD.506,0.4 nM
same,koff,hCSF1R ECD.506,0.000609 s⁻¹
same,kon,hCSF1R ECD.506,1.51e+06 M⁻¹ s⁻¹
same,"IC50, inhibition of CSF1-induced CSF1R phosphorylation (head prints 'Human CSF1/Human CSF1R ECD IC50')",[3],419 ng/mL
same,"IC50, inhibition of IL34-induced CSF1R phosphorylation (head prints 'Human IL34/Human CSF1R ECD IC50')",[3],578 ng/mL
same,"IC50 (read off the curve), IL34-induced CSF1R phosphorylation",[4],~600 ng/mL
same,EC50,hCSF1R ECD.506-Fc,0.0133 µg/mL
same,IC50,cynoCSF1R ECD-Fc [5],0.0486 µg/mL
same,binding result,mCSF1R ECD-Fc,no binding (tested: 2000 ng/ml)
same,EC50,cynoCSF1R ECD-Fc [6],0.0203 µg/mL
"cAb 0301 (antibody, human IgG4 S228P, kappa, V domains shown) VH: EVQLQQSGPELVRPGASVKMSCKASGYTFTDNYMIWVKQSHGKSLEWIGDINPYNGGTTFNQKFKGKATLTVEKSSSTAYMQLNSLTSEDSAVYYCARESPYFSNLYVMDYWGQGTSVTVSS VL: NIVLTQSPASLAVSLGQRATISCKASQSVDYDGDNYMNWYQQKPGQPPKLLIYAASNLESGIPARFSGSGSGTDFTLNIHPVEEEDAATYYCHLSNEDLSTFGGGTKLEIKR",IC50,cynoCSF1R ECD-Fc [10],0.022 µg/mL
same,"IC50, inhibition of CSF1-induced CSF1R phosphorylation (head prints 'Human CSF1/Human CSF1R ECD IC50')",[3],307 ng/mL
same,"IC50, inhibition of IL34-induced CSF1R phosphorylation (head prints 'Human IL34/Human CSF1R ECD IC50')",[3],312 ng/mL
same,"IC50 (read off the curve), CSF1-induced CSF1R phosphorylation",[11],~300 ng/mL
same,EC50,hCSF1R ECD.506-Fc,0.0114 µg/mL
same,IC50,cynoCSF1R ECD-Fc [5],0.0295 µg/mL
same,binding result,mCSF1R ECD-Fc,no binding (tested: 2000 ng/ml)
same,EC50,cynoCSF1R ECD-Fc [6],0.0152 µg/mL

# From patent US20220153851A1 (Five Prime, published 2022)
